Results as given in paper PMC4604457.

Tests used:
[1] = target: N-MBP-ORF3-A647 (not stated | Hepatitis E virus genotype 1) (UniProt O90299); assay: MST
[2] = target: N-MBP-ORF3-A647 (not stated | Hepatitis E virus genotype 1) (UniProt O90299); assay: MST; as a7 but at pH 6.0 (pH series), 30 °C
[3] = target: N-MBP-ORF3-A647 (not stated | Hepatitis E virus genotype 1) (UniProt O90299); assay: MST; as a7 but at 37 °C (temperature series), pH 7
[4] = target: N-MBP-ORF3-A647 (not stated | Hepatitis E virus genotype 1) (UniProt O90299); assay: MST; as a7 but at 41 °C (temperature series), pH 7
[5] = target: N-MBP-ORF3-A647 (not stated | Hepatitis E virus genotype 1) (UniProt O90299); assay: MST; as a7 but at pH 8.0 (pH series), 30 °C
[6] = target: N-MBP-ORF3-A647 (not stated | Hepatitis E virus genotype 1) (UniProt O90299); assay: MST; pH 7
[7] = target: N-MBP-ORF3-A647 (not stated | Hepatitis E virus genotype 1) (UniProt O90299); assay: MST; as a7 but at 35 °C (temperature series), pH 7

N-MBP-Hel (domain or fragment)
EC50 [1]: 87.9 nM

N-MBP-Met (domain or fragment)
EC50 [1]: 33.7 nM

N-MBP-Plp (domain or fragment)
EC50 [2]: 19 nM | EC50 [3]: 16 nM | EC50 [4]: 19 nM | EC50 [1]: 0.3 nM | EC50 [5]: 6 nM | EC50 [6]: 1.5 nM | EC50 [7]: 2.8 nM

N-MBP-Pvx (domain or fragment)
EC50 [1]: 1.6 nM

N-MBP-X (domain or fragment)
EC50 [1]: 5.6 nM
